For test [1], the target named is T1, Galectin-3 (UniProt P17931 1-250, limits assumed).
T1 construct: Target of the anti-Gal3 antibody TB006; also called Gal3; GAL3
Put plainly: BLI; after -80 C for 1 month. Background: Biolayer interferometry detects binding as a change in optical thickness at a sensor tip.

Test [2] has as its target T1, Galectin-3. Kind of test: BLI; after 40 C for 21 days.
Test [3] addresses T1, Galectin-3. Put plainly: BLI (Binding Activity); accelerated stability 25 C/60% RH, 1 month.
In test [4] the target is T1, Galectin-3. Put plainly: BLI; after 25 C for 9 months.
The target of test [5] is T1, Galectin-3. Put plainly: BLI; after 4 C for 3 months.
The target of test [6] is T1, Galectin-3. Put plainly: BLI; after 25 C for 14 days.
In test [7] the target is T1, Galectin-3. Put plainly: BLI; after agitation (shear stress).
Test [8] has as its target T1, Galectin-3. Kind of test: BLI (Binding Activity); long-term stability 5 C, 0 months; 5° C. long-term table, 0 months, Batch No. 095I0720.
In test [9] the target is T1, Galectin-3. Kind of test: BLI (Binding Activity); long-term stability 5 C, 1 month.
Test [10] deals with T1, Galectin-3. Put plainly: BLI; after 4 C for 9 months.
In test [11] the target is T1, Galectin-3. Kind of test: ELISA blocking assay; TB006 diluted to 0.31 mg/mL in 0.9% NaCl, 25 C, 4 h; blocked partner not named. Background: An ELISA detects its analyte on a solid surface through an enzyme-linked reagent.
For test [12], the target named is T1, Galectin-3. Kind of test: BLI; Time 0 (control).
For test [13], the target named is T1, Galectin-3. Put plainly: BLI; after -80 C for 12 months.
The target in test [14] is T1, Galectin-3. Kind of test: BLI (Binding Activity); long-term stability 5 C, 3 months.
Test [15] addresses T1, Galectin-3. Kind of test: BLI; after 25 C for 6 months.
In test [16] the target is T2, Galectin-3 (Gal3) (UniProt P17931 1-250, limits assumed).
T2 construct: Target of TB006
T2 sequence (P17931 whole entry): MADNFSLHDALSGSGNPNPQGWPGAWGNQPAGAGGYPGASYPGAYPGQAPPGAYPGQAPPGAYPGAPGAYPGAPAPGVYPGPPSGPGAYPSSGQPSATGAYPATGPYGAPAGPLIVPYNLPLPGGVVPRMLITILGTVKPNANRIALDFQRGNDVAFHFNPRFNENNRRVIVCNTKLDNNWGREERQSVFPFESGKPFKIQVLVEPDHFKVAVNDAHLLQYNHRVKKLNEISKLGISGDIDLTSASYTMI
Put plainly: BLI; 50 mg/mL DS after -80 C for 3 months.

Test [17] deals with T2, Galectin-3 (Gal3). Put plainly: BLI; 20 mg/mL DS after -80 C for 18 months. In outline: (§1)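 Samples were taken at time zero or after stress: agitation (shear), repeated freeze-thaw cycles, or storage at set temperatures, including a 40° C stress test and cryogenic storage. Binding to Galectin-3 was measured by biolayer interferometry and reported as the dissociation constant (Kd).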

For test [18], the target named is T2, Galectin-3 (Gal3). Put plainly: BLI; 20 mg/mL DS after 25 C for 14 days. In outline:
as §1

Test [19] has as its target T2, Galectin-3 (Gal3). Put plainly: BLI; 20 mg/mL DS after -80 C for 3 months.
Test [20] concerns the target T2, Galectin-3 (Gal3). Put plainly: BLI; 50 mg/mL DS after 4 C for 3 months.
Test [21] addresses T2, Galectin-3 (Gal3). Put plainly: BLI; 20 mg/mL DS after -80 C for 1 month. In outline:
as §1

For test [22], the target named is T2, Galectin-3 (Gal3). Kind of test: BLI; 20 mg/mL DS after -80 C for 12 months. In outline: as §1
The target of test [23] is T2, Galectin-3 (Gal3). Put plainly: BLI; 20 mg/mL DS after 40 C for 7 days.
In test [24] the target is T2, Galectin-3 (Gal3). Kind of test: BLI; 20 mg/mL DS, time 0 control. In outline:
as §1

Test [25] addresses T2, Galectin-3 (Gal3). Kind of test: BLI; 20 mg/mL DS after 25 C for 3 months. In outline: as §1
The target of test [26] is T2, Galectin-3 (Gal3). Kind of test: BLI; 20 mg/mL DS after agitation for 1 day. In outline:
as §1

For test [27], the target named is T2, Galectin-3 (Gal3). Put plainly: BLI; 20 mg/mL DS after 4 C for 3 months.
Test [28] has as its target T2, Galectin-3 (Gal3). Put plainly: BLI; 20 mg/mL DS after -80 C for 6 months. In outline: as §1
In test [29] the target is T2, Galectin-3 (Gal3). Kind of test: BLI; 50 mg/mL DS after -80 C for 1 month.
Test [30] deals with T2, Galectin-3 (Gal3). Kind of test: BLI; 20 mg/mL DS after -80 C for 9 months.
Test [31] deals with T2, Galectin-3 (Gal3). Kind of test: BLI; 50 mg/mL DS after -80 C for 12 months.
Test [32] addresses T2, Galectin-3 (Gal3). Put plainly: BLI; 20 mg/mL DS after 5 freeze/thaws. In outline: as §1

The values that follow come from US20240158512A1 (TRUEBINDING, published 2024).

Values joined by “and” are separate entries in the source; they are usually repeats but may differ in a detail not shown here. Equal entries are not always repeated.

T1 sequence (P17931 whole entry): as above

B1: TB006 (antibody, human IgG4 S228P, kappa, V domains shown)
VH: QVQLVQSGAEVKKPGASVKVSCKASGYSFTNYYMHWVRQAPGQRLEWMGWIYPGSGNTNYNEKFQGRVTITADTSASTAYMELSSLRSEDTAVYYCSTAPGGFDVWGQGTTVTVSS
VL: DIVMTQTPLSLSVTPGQPASISCKSSKSLLHSDGITYLYWYLQKPGQSPQLLIYRMSNLASGVPDRFSGSGSGTDFTLKISRVEAEDVGVYYCAQMLEFPLTFGQGTKLEIKR
notes: Tested as formulated drug substance or drug product in 20 mM L-histidine, 5 mM methionine, 100 mM NaCl, 0.02% polysorbate 80, pH 5.8, or diluted in 0.9% saline; also called 4A11.H3L1; IMT006a
A word on the Kd: it is the equilibrium constant for the complex coming apart. Higher therefore signals weaker binding. In general, IC50 refers to the concentration that gives 50% inhibition. Higher therefore signals weaker potency. Consider B1, for which the Kd with Galectin-3 [1] stood at 3.2 nM; with Galectin-3 [2] it was 2.8 nM; with Galectin-3 [3], 2.5 nM; with Galectin-3 [4] it was 2.8 nM; in the test with Galectin-3 [5], 3.3 nM; with Galectin-3 [6], 2.6 nM. Further, the Kd amounted to 2.8 nM with Galectin-3 [7]; 3 nM with Galectin-3 [8]; 2.5 nM with Galectin-3 [9]; 2.2 nM in the test with Galectin-3 [10]; 2.8 nM with Galectin-3 [12]; 3 nM with Galectin-3 [13]. In addition, the Kd was 3 nM with Galectin-3 [14] and 2.6 nM with Galectin-3 [15]. Besides, the concentration for half-maximal inhibition (IC50) with Galectin-3 [11] is 1.35 µg/mL and 1.41 µg/mL.

B2: TB006 (antibody, human IgG4 S228P, kappa, V domains shown)
VH: B1 VH
VL: B1 VL
notes: Full antibody tested as drug substance (DS) in 20 mM L-histidine, 5 mM methionine, 100 mM NaCl, 0.02% polysorbate-80, pH 5.8; also called 4A11.H3L1; IMT006a
Turning to B2, the Kd with Galectin-3 (Gal3) [16] is 2.5 nM; with Galectin-3 (Gal3) [17], 4.2 nM; with Galectin-3 (Gal3) [18], 2.7 nM; in the test with Galectin-3 (Gal3) [19], 3.5 nM; with Galectin-3 (Gal3) [20] it was 2.3 nM; in the test with Galectin-3 (Gal3) [21], 3.6 nM. Further, the Kd with Galectin-3 (Gal3) [22] is 2.7 nM; in the test with Galectin-3 (Gal3) [23] it was 2.9 nM; with Galectin-3 (Gal3) [24], 2.9 nM; with Galectin-3 (Gal3) [25] it was 3.4 nM; with Galectin-3 (Gal3) [26], 3.1 nM; with Galectin-3 (Gal3) [27], 3.4 nM. For the same molecule, the Kd amounted to 2.7 nM with Galectin-3 (Gal3) [28]; 2.3 nM with Galectin-3 (Gal3) [29]; 1.7 nM in the test with Galectin-3 (Gal3) [30]; 3.5 nM with Galectin-3 (Gal3) [31]; 3.1 nM in the test with Galectin-3 (Gal3) [32].
